From patent US20220119534A1 (DRAGONFLY THERAPEUTICS, published 2022)
Several values for one entry are separate records, joined by “and”; a condition that tells them apart may be missing. Equal entries are not always repeated. One block for each binder: values may come before it.

How the values were obtained:
[1] = biological target: T1, Human CD16a V158 (FcγRIIIa V158) (human, UniProt P08637 17-208, biotinylated (site not stated)); experiment: SPR; biotinylated CD16a V158 captured on SA chip, TriNKET as analyte; 1:1 kinetic fit; control sample
T1 construct: V158 is the allele name in mature numbering; also called hCD16aV; hCD16a V158

mFc-hNKG2D [2] = biological target: T2, mFc-hNKG2D (human, UniProt P26718 73-216); experiment: SPR Biacore 8K 37 C; mFc-hNKG2D captured on anti-mFc chip, TriNKET as analyte; 1:1 kinetic fit; control sample, n=2
T2 construct: extracellular domain; Made in house (Dragonfly Tx); the order of tag and ECD follows the name mFc-hNKG2D; also called mFc-tagged human NKG2D; not shown: mouse Fc tag
T2 sequence (looked up): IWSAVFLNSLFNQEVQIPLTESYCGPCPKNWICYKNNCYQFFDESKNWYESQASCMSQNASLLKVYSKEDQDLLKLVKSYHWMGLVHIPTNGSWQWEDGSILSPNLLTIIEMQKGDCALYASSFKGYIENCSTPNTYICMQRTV

Human FcRn = biological target: T3, Human FcRn (human, UniProt P55899 24-297; P61769 21-119); experiment: SPR, steady state fit
T3 construct: Bought recombinant receptor; also called hFcRn

Cynomolgus FcRn = biological target: T4, Cynomolgus FcRn (cynomolgus monkey, UniProt Q8SPV9 24-297; Q8SPW0 21-119); experiment: SPR, steady state fit
T4 construct: Bought recombinant receptor; also called cFcRn; Cyno FcRn

mFc-hNKG2D [3] = biological target: T5, mFc-hNKG2D (human, UniProt P26718 73-216); experiment: SPR, 37 C, mFc-hNKG2D captured, 1:1 kinetic fit; average
T5 construct: extracellular domain; Recombinant mFc-tagged NKG2D dimer, made in house; also called human NKG2D; not shown: mouse Fc tag
T5 sequence (looked up): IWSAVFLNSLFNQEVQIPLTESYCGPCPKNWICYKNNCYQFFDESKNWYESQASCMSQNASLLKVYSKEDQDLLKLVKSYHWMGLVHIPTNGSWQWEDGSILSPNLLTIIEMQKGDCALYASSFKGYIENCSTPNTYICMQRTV

[4] = biological target: T6, recombinant human CD16a F158 (human, UniProt P08637 17-208); experiment: SPR 25C, steady state
T6 construct: also called FcγRIIIa F158

[5] = biological target: T7, recombinant human CD32a R131 (human, UniProt P12318 36-218, limits assumed, biotinylated); experiment: SPR 25C, steady state, average
T7 construct: also called FcγRIIa R131
T7 sequence (looked up): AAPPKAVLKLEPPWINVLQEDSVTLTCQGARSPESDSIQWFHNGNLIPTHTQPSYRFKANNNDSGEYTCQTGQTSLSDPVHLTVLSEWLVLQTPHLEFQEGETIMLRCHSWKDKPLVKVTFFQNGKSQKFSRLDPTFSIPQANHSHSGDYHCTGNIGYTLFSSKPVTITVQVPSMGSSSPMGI

[6] = biological target: T6, recombinant human CD16a F158; experiment: SPR 25C, steady state, average
BCMA = biological target: T8, BCMA; experiment: SPR specificity test; unrelated recombinant antigen at up to 500 nM
T8 chain: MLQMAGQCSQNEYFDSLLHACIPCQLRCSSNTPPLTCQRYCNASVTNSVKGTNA

HER2 = experiment: as above

T6 sequence (P08637 17-208 limits assumed): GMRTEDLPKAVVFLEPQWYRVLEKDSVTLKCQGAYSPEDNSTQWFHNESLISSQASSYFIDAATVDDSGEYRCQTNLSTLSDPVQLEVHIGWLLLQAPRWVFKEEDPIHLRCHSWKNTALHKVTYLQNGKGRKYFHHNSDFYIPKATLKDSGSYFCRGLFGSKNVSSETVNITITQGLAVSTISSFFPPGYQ
T1 sequence (P08637 17-208 F176V limits assumed): as the sequence (P08637 17-208 limits assumed) above, with F160V counted along it
T4 sequence (Q8SPV9 24-297 limits assumed, chain 1 of 2): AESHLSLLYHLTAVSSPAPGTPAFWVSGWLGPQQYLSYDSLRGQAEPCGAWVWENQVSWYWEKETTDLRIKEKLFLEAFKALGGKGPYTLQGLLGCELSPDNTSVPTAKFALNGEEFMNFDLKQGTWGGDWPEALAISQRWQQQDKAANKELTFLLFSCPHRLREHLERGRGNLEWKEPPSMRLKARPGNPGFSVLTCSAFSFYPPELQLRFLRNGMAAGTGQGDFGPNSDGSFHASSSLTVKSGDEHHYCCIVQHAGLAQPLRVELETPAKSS
T4 sequence (Q8SPW0 21-119 limits assumed, chain 2 of 2): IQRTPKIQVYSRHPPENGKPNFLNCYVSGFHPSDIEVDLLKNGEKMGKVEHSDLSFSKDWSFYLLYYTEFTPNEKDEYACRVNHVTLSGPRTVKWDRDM

Kd [1]: 0.212 µM | koff [1]: 0.024 s⁻¹ | kon [1]: 113000 M⁻¹ s⁻¹ | Kd (mFc-hNKG2D [2]): 0.79 µM | koff (mFc-hNKG2D [2]): 0.153 s⁻¹ | kon (mFc-hNKG2D [2]): 193000 M⁻¹ s⁻¹
B1: F3'-1602 TriNKET (bispecific antibody, human IgG1, kappa)
chain: QLQLQESGPGLVKPSETLSLTCTVSGFSLTNYGLHWIRQPPGKCLEWIGVIWSGGKTDYNPSLKSRVTISKDTSKNQFSLKLSSVQAADTAVYYCAKYDYDDSLDYWGQGTLVTVSSGGGGSGGGGSGGGGSGGGGSDIQMTQSPSSLSASVGDRVTITCHASQNINFWLSWYQQKPGKAPKLLIYEASNLHTGVPSRFSGSGSGTRFTLTISSLQPEDIATYYCQQSHSYPLTFGCGTKLEIKGSDKTHTCPPCPAPELLGGPSVFLFPPKPKDTLMISRTPEVTCVVVDVSHEDPEVKFNWYVDGVEVHNAKTKPREEQYNSTYRVVSVLTVLHQDWLNGKEYKCKVSNKALPAPIEKTISKAKGQPREPRVYTLPPCRDELTKNQVSLTCLVKGFYPSDIAVEWESNGQPENNYKTTPPVLVSDGSFTLYSKLTVDKSRWQQGNVFSCSVMHEALHNHYTQKSLSLSPG
heavy: EVQLVESGGGLVKPGGSLRLSCAASGFTFSSYSMNWVRQAPGKGLEWVSSISSSSSYIYYADSVKGRFTISRDNAKNSLYLQMNSLRAEDTAVYYCARGAPIGAAAGWFDPWGQGTLVTVSSASTKGPSVFPLAPSSKSTSGGTAALGCLVKDYFPEPVTVSWNSGALTSGVHTFPAVLQSSGLYSLSSVVTVPSSSLGTQTYICNVNHKPSNTKVDKKVEPKSCDKTHTCPPCPAPELLGGPSVFLFPPKPKDTLMISRTPEVTCVVVDVSHEDPEVKFNWYVDGVEVHNAKTKPREEQYNSTYRVVSVLTVLHQDWLNGKEYKCKVSNKALPAPIEKTISKAKGQPREPQVCTLPPSRDELTENQVSLTCLVKGFYPSDIAVEWESNGQPENNYKTTPPVLDSDGSFFLYSWLTVDKSRWQQGNVFSCSVMHEALHNHYTQKSLSLSPG
light: DIQMTQSPSSVSASVGDRVTITCRASQGISSWLAWYQQKPGKAPKLLIYAASSLQSGVPSRFSGSGSGTDFTLTISSLQPEDFATYYCQQGVSFPRTFGGGTKVEIKRTVAAPSVFIFPPSDEQLKSGTASVVCLLNNFYPREAKVQWKVDNALQSGNSQESVTEQDSKDSTYSLSSTLTLSKADYEKHKVYACEVTHQGLSSPVTKSFNRGEC
notes: Trispecific F3' format: CLEC12A scFv-Fc paired with NKG2D Fab-Fc; Stressed and control samples of the stability studies are the same molecule; also called AB0237

Kd (Human FcRn): 1.5 µM and 1.3 µM | Kd (Cynomolgus FcRn): 1.5 µM and 1.4 µM and 1.2 µM | koff (mFc-hNKG2D [3]): 0.146 s⁻¹ | kon (mFc-hNKG2D [3]): 188000 M⁻¹ s⁻¹
B2: AB0192 TriNKET (other)
chain: EVQLVESGGGVVQPGGSLRLSCAASGFTFNAFGMHWVRQAPGKCLEWVAFISSGSTSIYYANTVKGRFTISRDNSKNTLYLQMNSLRAEDTAVYYCARDGYPTGGAMDYWGQGTSVTVSSGGGGSGGGGSGGGGSGGGGSDIQMTQSPSSLSASVGDRVTITCKASQDIYNYLSWFQQKPGKAPKPLIYRANILVSGVPSRFSGSGSGQDYTFTISSLQPEDIATYYCLQFDAFPFTFGCGTKLEIKGSDKTHTCPPCPAPELLGGPSVFLFPPKPKDTLMISRTPEVTCVVVDVSHEDPEVKFNWYVDGVEVHNAKTKPREEQYNSTYRVVSVLTVLHQDWLNGKEYKCKVSNKALPAPIEKTISKAKGQPREPRVYTLPPCRDELTKNQVSLTCLVKGFYPSDIAVEWESNGQPENNYKTTPPVLVSDGSFTLYSKLTVDKSRWQQGNVFSCSVMHEALHNHYTQKSLSLSPG
heavy: EVQLVESGGGLVKPGGSLRLSCAASGFTFSSYSMNWVRQAPGKGLEWVSSISSSSSYIYYADSVKGRFTISRDNAKNSLYLQMNSLRAEDTAVYYCARGAPIGAAAGWFDPWGQGTLVTVSSASTKGPSVFPLAPSSKSTSGGTAALGCLVKDYFPEPVTVSWNSGALTSGVHTFPAVLQSSGLYSLSSVVTVPSSSLGTQTYICNVNHKPSNTKVDKKVEPKSCDKTHTCPPCPAPELLGGPSVFLFPPKPKDTLMISRTPEVTCVVVDVSHEDPEVKFNWYVDGVEVHNAKTKPREEQYNSTYRVVSVLTVLHQDWLNGKEYKCKVSNKALPAPIEKTISKAKGQPREPQVCTLPPSRDELTENQVSLTCLVKGFYPSDIAVEWESNGQPENNYKTTPPVLDSDGSFFLYSWLTVDKSRWQQGNVFSCSVMHEALHNHYTQKSLSLSPG
light: DIQMTQSPSSVSASVGDRVTITCRASQGISSWLAWYQQKPGKAPKLLIYAASSLQSGVPSRFSGSGSGTDFTLTISSLQPEDFATYYCQQGVSFPRTFGGGTKVEIKRTVAAPSVFIFPPSDEQLKSGTASVVCLLNNFYPREAKVQWKVDNALQSGNSQESVTEQDSKDSTYSLSSTLTLSKADYEKHKVYACEVTHQGLSSPVTKSFNRGEC
notes: the condition stands under assay; also called AB0192 Lot AB0192-005

Kd [4]: 1.13 µM and 1.12 µM and 1.09 µM | Kd [5]: 1.4 µM | Kd [6]: 1.11 µM | Response (RU) (BCMA): 0.2 RU | Response (RU) (HER2): 0.1 RU
B3: F3'-1602 TriNKET (other)
chain: QLQLQESGPGLVKPSETLSLTCTVSGFSLTNYGLHWIRQPPGKCLEWIGVIWSGGKTDYNPSLKSRVTISKDTSKNQFSLKLSSVQAADTAVYYCAKYDYDDSLDYWGQGTLVTVSSGGGGSGGGGSGGGGSGGGGSDIQMTQSPSSLSASVGDRVTITCHASQNINFWLSWYQQKPGKAPKLLIYEASNLHTGVPSRFSGSGSGTRFTLTISSLQPEDIATYYCQQSHSYPLTFGCGTKLEIKGSDKTHTCPPCPAPELLGGPSVFLFPPKPKDTLMISRTPEVTCVVVDVSHEDPEVKFNWYVDGVEVHNAKTKPREEQYNSTYRVVSVLTVLHQDWLNGKEYKCKVSNKALPAPIEKTISKAKGQPREPRVYTLPPCRDELTKNQVSLTCLVKGFYPSDIAVEWESNGQPENNYKTTPPVLVSDGSFTLYSKLTVDKSRWQQGNVFSCSVMHEALHNHYTQKSLSLSPG
heavy: EVQLVESGGGLVKPGGSLRLSCAASGFTFSSYSMNWVRQAPGKGLEWVSSISSSSSYIYYADSVKGRFTISRDNAKNSLYLQMNSLRAEDTAVYYCARGAPIGAAAGWFDPWGQGTLVTVSSASTKGPSVFPLAPSSKSTSGGTAALGCLVKDYFPEPVTVSWNSGALTSGVHTFPAVLQSSGLYSLSSVVTVPSSSLGTQTYICNVNHKPSNTKVDKKVEPKSCDKTHTCPPCPAPELLGGPSVFLFPPKPKDTLMISRTPEVTCVVVDVSHEDPEVKFNWYVDGVEVHNAKTKPREEQYNSTYRVVSVLTVLHQDWLNGKEYKCKVSNKALPAPIEKTISKAKGQPREPQVCTLPPSRDELTENQVSLTCLVKGFYPSDIAVEWESNGQPENNYKTTPPVLDSDGSFFLYSWLTVDKSRWQQGNVFSCSVMHEALHNHYTQKSLSLSPG
light: DIQMTQSPSSVSASVGDRVTITCRASQGISSWLAWYQQKPGKAPKLLIYAASSLQSGVPSRFSGSGSGTDFTLTISSLQPEDFATYYCQQGVSFPRTFGGGTKVEIKRTVAAPSVFIFPPSDEQLKSGTASVVCLLNNFYPREAKVQWKVDNALQSGNSQESVTEQDSKDSTYSLSSTLTLSKADYEKHKVYACEVTHQGLSSPVTKSFNRGEC
notes: CLEC12A scFv-Fc, NKG2D A49MI Fab-Fc, human IgG1 Fc; also called AB0237
